Results published in US20110305629A1.

Tests used:
[1] = molecular target: αvβ6 (UniProt P06756); experiment: binding ELISA; murine secondary
[2] = molecular target: human αvβ6 integrin on cells (human) (UniProt P06756); experiment: cell-based or functional assay
[3] = molecular target: rhesus monkey αvβ6 integrin on 4MBr5 cells (rhesus monkey) (UniProt H9ETF2); experiment: cell-based or functional assay
[4] = molecular target: rhesus monkey αvβ6 integrin on 4MBr5 cells (rhesus monkey) (UniProt H9ETF2); experiment: flow cytometry titration on 4MBr5 cells; given as ED50
[5] = molecular target: African green monkey αvβ6 integrin on 12MBr6 cells (African green monkey); experiment: flow cytometry titration on 12MBr6 cells; given as ED50
[6] = molecular target: human αvβ6 integrin on cells (human) (UniProt P06756); experiment: cell adhesion assay: SCC-14 cells to LAP, inhibition by m3G9
[7] = molecular target: human αvβ6 integrin on cells (human) (UniProt P06756); experiment: cell adhesion assay: SW480β6 cells to LAP, inhibition by m3G9
[8] = molecular target: human αvβ6 integrin on cells (human) (UniProt P06756); experiment: cell adhesion assay: Detroit562 cells to LAP, inhibition by m3G9
[9] = molecular target: rhesus monkey αvβ6 integrin on 4MBr5 cells (rhesus monkey) (UniProt H9ETF2); experiment: cell adhesion assay: labelled 4MBr5 cells on LAP-coated plate, inhibition by m3G9
[10] = molecular target: African green monkey αvβ6 integrin on 12MBr6 cells (African green monkey); experiment: cell adhesion assay: labelled 12MBr6 cells on LAP-coated plate, inhibition by m3G9
[11] = molecular target: rhesus monkey αvβ6 integrin on 4MBr5 cells (rhesus monkey) (UniProt H9ETF2); experiment: cell adhesion assay: 4MBr5 cells to LAP; the text gives the cell lines the other way round than the table
[12] = molecular target: African green monkey αvβ6 integrin on 12MBr6 cells (African green monkey); experiment: cell adhesion assay: 12MBr6 cells to LAP; the text gives the cell lines the other way round than the table
[13] = molecular target: rhesus monkey αvβ6 integrin on 4MBr5 cells (rhesus monkey) (UniProt H9ETF2); experiment: flow cytometry titration on 4MBr5 cells; given as ED50; the text gives the cell lines the other way round than the table
[14] = molecular target: African green monkey αvβ6 integrin on 12MBr6 cells (African green monkey); experiment: flow cytometry titration on 12MBr6 cells; given as ED50; the text gives the cell lines the other way round than the table

Chain of human αvβ6 integrin on cells (human) (P06756 31-1048, chain 1 of 2): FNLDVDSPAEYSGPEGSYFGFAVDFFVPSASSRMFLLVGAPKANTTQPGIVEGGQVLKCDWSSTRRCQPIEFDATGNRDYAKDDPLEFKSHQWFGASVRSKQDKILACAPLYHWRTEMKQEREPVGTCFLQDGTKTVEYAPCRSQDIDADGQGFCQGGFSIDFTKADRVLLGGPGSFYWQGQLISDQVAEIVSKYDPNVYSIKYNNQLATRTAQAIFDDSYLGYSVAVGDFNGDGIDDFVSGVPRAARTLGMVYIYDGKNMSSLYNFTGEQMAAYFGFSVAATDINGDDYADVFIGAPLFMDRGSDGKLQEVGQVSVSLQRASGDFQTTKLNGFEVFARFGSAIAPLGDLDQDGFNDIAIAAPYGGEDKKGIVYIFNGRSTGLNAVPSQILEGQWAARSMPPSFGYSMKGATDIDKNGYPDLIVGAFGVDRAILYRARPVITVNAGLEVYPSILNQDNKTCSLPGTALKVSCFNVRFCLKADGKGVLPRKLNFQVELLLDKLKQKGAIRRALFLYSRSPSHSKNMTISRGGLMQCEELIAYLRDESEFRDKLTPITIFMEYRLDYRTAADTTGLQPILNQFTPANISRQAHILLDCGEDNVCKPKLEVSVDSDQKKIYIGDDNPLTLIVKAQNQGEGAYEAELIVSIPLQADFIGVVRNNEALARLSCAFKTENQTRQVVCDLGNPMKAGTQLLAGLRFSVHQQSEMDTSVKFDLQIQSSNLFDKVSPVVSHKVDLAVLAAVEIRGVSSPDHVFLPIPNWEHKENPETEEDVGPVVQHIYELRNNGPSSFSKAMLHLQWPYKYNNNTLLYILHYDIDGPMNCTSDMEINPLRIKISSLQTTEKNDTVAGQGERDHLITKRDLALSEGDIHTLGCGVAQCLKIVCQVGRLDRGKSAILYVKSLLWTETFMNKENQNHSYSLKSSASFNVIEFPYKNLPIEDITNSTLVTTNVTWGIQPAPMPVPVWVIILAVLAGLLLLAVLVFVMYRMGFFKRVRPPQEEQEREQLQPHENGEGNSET
Chain of human αvβ6 integrin on cells (human) (P18564 22-788, chain 2 of 2, further chain): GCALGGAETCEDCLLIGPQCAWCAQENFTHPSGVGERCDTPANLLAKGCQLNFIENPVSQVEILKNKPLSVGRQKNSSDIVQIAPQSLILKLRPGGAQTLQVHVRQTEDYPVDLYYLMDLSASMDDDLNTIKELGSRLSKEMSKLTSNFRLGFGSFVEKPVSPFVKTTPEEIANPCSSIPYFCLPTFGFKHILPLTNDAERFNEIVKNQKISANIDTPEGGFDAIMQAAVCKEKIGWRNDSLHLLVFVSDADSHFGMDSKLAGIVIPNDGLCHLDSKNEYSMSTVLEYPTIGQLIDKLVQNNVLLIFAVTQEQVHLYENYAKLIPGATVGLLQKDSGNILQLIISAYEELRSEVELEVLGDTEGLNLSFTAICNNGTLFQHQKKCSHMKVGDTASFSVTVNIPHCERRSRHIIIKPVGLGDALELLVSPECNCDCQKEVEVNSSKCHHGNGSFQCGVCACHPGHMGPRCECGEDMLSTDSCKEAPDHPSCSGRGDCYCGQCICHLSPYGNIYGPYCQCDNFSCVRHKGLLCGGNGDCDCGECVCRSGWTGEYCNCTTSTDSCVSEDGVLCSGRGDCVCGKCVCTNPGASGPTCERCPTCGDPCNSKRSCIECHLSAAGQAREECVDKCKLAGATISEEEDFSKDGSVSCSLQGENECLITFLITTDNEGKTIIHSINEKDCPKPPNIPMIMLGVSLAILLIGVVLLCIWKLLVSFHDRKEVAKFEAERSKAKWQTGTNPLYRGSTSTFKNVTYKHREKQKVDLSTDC
Chain of αvβ6 (P06756 31-992, chain 1 of 2): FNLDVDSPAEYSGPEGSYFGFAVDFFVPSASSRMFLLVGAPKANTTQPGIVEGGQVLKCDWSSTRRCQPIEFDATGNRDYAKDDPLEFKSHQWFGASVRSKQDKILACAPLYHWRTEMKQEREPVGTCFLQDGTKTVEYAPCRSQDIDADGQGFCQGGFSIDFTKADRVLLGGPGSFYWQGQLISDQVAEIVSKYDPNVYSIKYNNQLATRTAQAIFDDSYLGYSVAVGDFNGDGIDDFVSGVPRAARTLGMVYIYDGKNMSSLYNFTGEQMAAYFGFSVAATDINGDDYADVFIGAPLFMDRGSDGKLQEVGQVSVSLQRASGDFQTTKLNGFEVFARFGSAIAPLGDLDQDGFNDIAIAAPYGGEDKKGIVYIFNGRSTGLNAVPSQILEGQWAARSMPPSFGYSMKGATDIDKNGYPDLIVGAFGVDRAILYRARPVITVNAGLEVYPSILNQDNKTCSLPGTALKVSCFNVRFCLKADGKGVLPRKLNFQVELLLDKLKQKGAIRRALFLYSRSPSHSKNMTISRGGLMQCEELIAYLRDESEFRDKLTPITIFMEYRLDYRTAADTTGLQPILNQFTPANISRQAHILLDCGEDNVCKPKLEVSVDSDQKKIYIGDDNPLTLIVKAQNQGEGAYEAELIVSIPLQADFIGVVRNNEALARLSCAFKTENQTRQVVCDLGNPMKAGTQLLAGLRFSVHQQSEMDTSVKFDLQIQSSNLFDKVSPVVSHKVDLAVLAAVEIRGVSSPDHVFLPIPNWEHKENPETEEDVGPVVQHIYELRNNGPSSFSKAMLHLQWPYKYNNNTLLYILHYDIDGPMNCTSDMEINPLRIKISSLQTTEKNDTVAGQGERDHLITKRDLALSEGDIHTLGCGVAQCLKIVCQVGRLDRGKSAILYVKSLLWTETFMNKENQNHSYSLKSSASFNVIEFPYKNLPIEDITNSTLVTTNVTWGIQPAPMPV
Chain of αvβ6 (P18564 22-709, chain 2 of 2, further chain): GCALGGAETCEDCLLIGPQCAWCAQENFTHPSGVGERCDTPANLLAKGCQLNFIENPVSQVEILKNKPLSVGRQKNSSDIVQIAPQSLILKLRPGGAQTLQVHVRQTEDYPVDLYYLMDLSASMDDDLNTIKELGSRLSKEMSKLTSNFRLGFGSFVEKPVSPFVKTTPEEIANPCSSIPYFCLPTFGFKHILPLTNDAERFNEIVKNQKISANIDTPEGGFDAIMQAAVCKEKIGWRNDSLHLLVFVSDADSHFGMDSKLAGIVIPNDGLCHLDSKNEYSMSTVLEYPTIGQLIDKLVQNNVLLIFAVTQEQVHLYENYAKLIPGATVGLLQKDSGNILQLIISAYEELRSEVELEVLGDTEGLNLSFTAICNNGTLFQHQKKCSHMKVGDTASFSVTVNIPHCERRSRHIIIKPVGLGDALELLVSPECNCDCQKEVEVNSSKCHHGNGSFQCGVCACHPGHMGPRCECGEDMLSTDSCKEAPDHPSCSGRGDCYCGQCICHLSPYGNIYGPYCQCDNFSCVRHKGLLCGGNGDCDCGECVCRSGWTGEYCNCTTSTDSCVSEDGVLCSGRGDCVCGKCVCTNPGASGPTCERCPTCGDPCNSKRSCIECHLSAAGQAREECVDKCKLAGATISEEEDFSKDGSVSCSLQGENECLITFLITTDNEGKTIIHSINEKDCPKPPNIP

Substance | EC50 [1] [µg/mL] | Coculture IC50, µg/mL (TGFβ activation by SW480β6 cells, TMLC luciferase reporter cells) [2] [µg/mL] | IC50, coculture assay (SW480β6) [2] [µg/mL] | Coculture IC50, µg/mL (TGFβ activation by 4MBr5 cells, TMLC luciferase reporter cells) [3] [µg/mL] | IC50, coculture assay (4MBr5) [3] [µg/mL] | EC50 [4] [µg/mL] | EC50 [5] [µg/mL] | IC50 [6] [µg/mL] | IC50 [7] [µg/mL] | IC50 [8] [µg/mL] | IC50 [9] [µg/mL] | IC50 [10] [µg/mL] | IC50 [11] [µg/mL] | IC50 [12] [µg/mL] | EC50 [13] [µg/mL] | EC50 [14] [µg/mL]
m3G9 (murine secondary) | 0.021 | – | – | – | – | – | – | – | – | – | – | – | – | – | – | –
murine monoclonal antibody 6.3G9 | – | 0.37 | 0.24 | 0.31 | 0.4 | 0.3 | 0.38 | 0.16 | 0.03 | 0.04 | 0.22 | 0.29 | 0.29 | 0.22 | 0.38 | 0.3
